Columns and labels:
[1] = target: 10-kD NH2-terminal fragment of the invariant chain (Ii-p10) (mouse); experiment: SEC + co-IP
SEC + co-IP = target: the molecule itself; experiment: SEC + co-IP

10-kD NH2-terminal fragment of the invariant chain (Ii-p10) (domain or fragment), sequence (P04441 whole entry, change not shown, the tested form may be a part): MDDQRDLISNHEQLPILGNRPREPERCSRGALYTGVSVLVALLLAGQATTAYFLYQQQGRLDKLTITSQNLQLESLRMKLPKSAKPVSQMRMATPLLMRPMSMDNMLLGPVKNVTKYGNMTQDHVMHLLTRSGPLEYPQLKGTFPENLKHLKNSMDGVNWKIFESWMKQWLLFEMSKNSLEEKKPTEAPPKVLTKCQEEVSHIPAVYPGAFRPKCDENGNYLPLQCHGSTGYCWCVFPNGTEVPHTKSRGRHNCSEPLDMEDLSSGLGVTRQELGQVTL

| Molecule | stoichiometry N [1] | stoichiometry N (SEC + co-IP) |
| --- | --- | --- |
| 10-kD NH2-terminal fragment of the invariant chain (Ii-p10) (domain or fragment) | 3 |  |
| intact invariant (Ii) chain (natural protein, mouse, UniProt P04441-2 1-215, looked up) MDDQRDLISNHEQLPILGNRPREPERCSRGALYTGVSVLVALLLAGQATTAYFLYQQQGRLDKLTITSQNLQLESLRMKLPKSAKPVSQMRMATPLLMRPMSMDNMLLGPVKNVTKYGNMTQDHVMHLLTRSGPLEYPQLKGTFPENLKHLKNSMDGVNWKIFESWMKQWLLFEMSKNSLEEKKPTEAPPKEPLDMEDLSSGLGVTRQELGQVTL |  | 3 |
